Source: patent publication US11266616B2, “Compositions and methods for inhibiting kinase activity” (BRANDEIS UNIVERSITY, priority 2016, dated 2022)
“Also recorded” adds a separate entry of the source.

Key:
[1] = target: T1, dephosphorylated Aurora A kinase (Homo sapiens, UniProt O14965); test: Isothermal titration calorimetry (ITC) binding to dephosphorylated Aurora A kinase; settings: for binding affinity of monobody to dephosphorylated Aurora A kinase / binding affinity of sGFP-monobody fusion to Aurora A kinase compared with the monobody: ITC; for binding affinity of monobody to dephosphorylated Aurora A kinase: FIG. 8; for change of binding affinity of monobody to dephosphorylated Aurora A kinase: Aurora A pre-saturated with danusertib, FIGS. 11A-11B; for binding affinity of sGFP-monobody fusion to Aurora A kinase compared with the monobody: FIGS. 17B, 18D
T1 construct: Codon-optimized Aurora A^122-403 in pET28a and untagged λPP in T7-7 plasmid were co-transformed in BL21(DE3) cells; inferred from pET28a and the NiNTA column) (cleaved yes); made in house; host or cells: E. coli BL21(DE3), co-expressed with lambda protein phosphatase
T1 sequence (O14965 122-403): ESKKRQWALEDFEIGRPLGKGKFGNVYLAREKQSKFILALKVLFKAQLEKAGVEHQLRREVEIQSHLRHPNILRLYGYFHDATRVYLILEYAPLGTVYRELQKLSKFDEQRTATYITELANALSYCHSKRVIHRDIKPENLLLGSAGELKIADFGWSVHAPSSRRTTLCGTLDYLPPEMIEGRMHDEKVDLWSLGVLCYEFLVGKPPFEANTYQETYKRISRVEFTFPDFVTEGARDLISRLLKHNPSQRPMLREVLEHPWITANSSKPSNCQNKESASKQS
Method: (§1) Titrations were carried out using Nano ITC isothermal titration calorimeter (TA Instruments) and analyzed via the NanoAnalyze software using the independent fit model. Injectant was added in 1 μl volume, every 180 s, with a constant stirring speed at 350 rpm and at 25° C. Prior to ITC titration, both protein and TPX2 or monobody were dialyzed/resuspended in ITC buffer (20 mM TrisHCl, 200 mM NaCl, 3% (vol/vol) glycerol, 1 mM TCEP, pH 7.50).

[2] = test system: dephosphorylated Aurora A kinase-TPX2 chimera; test: ITC binding to dephosphorylated Aurora A kinase-TPX2 chimera; parameters: species or system human; settings: PIF pocket occupied by TPX2; relative to Aurora A kinase alone
Method: as §1

Aurora A kinase = target: T2, Aurora A kinase (Homo sapiens, UniProt O14965); test: In vitro kinase assay (HPLC-based / ATP/NADH-coupled) of peptide substrate phosphorylation; assay type: biochemical; settings: for effect of monobody on Aurora A kinase activity: Lats2 peptide substrate, FIG. 9
T2 construct: Codon-optimized Aurora A^122-403 in pET28a and untagged λPP in T7-7 plasmid were co-transformed in BL21(DE3) cells; inferred from pET28a and the NiNTA column) (cleaved yes); made in house; host or cells: E. coli BL21(DE3)
T2 sequence (O14965 122-403): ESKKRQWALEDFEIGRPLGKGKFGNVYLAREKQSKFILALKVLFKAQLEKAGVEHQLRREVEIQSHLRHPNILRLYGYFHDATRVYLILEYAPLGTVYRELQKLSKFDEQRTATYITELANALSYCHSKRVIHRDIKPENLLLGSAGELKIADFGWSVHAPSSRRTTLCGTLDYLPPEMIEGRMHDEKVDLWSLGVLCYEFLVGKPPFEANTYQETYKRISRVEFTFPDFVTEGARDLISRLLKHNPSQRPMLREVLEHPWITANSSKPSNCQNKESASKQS
Method: Aurora A, either phosphorylated/dephosphorylated wild type or mutant protein, was mixed with either AP ([…]) (SEQ ID NO: 5), Kemptide (LRRASLG) (SEQ ID NO: 6), or Lats2 ([…]) (SEQ ID NO: 7), in the absence or presence of 50 μM TPX2 in kinase buffer (20 mM TrisHCl, 200 mM NaCl, 3% [vol/vol] glycerol, 20 mM MgCl2, 1 mM TCEP, pH 7.50). These substrates comprise the consensus sequence for Aurora A ([R/K/N]—R—X—[S/T]-B where B is any hydrophobic residue with the exception of Pro) (Ferrari et al., 2005, Biochem. J., 390(Pt 1):293-302; Ohashi et al., 2006, Oncogene, 25:7691-7702; Sardon et al., 2010, EMBO Reports, 11:977-984). Peptides were ordered through Genscript. For HPLC-based activity assays the following protocol was used. The reaction was initiated with the addition of 5 mM ATP. Then 5 μl time points were collected, resuspended in 10 μl 6% (vol/vol) trichloroacetic acid (in water) to quench the reaction, and neutralized with 50 μl 100 mM KH2PO4, pH 8.0 to provide the appropriate pH for nucleotide separation. The mixture was then passed through a 0.22 μm SpinX column to remove any protein precipitation. Reverse phase-high performance liquid chromatography (RP-HPLC) and an ACE 5 C18-AR, 100 Å pore size column, were used to separate nucleotides as well as peptides. For nucleotide runs, 2 μl of the aforementioned mixture was sufficient for analysis, whereas for the peptide runs the optimal injection volume was 20 μl. Nucleotide runs were routinely performed to ensure no unproductive hydrolysis was occurring during the experiment. An isocratic elution run in 100 mM KH2PO4, pH 6.0 was performed for this purpose. For the peptide runs, a gradient of 0-30% of elution buffer lasting 10 min at 0.4 mL/min was sufficient to separate phosphorylated from non-phosphorylated species. The running buffer was 0.1% TFA (vol/vol) in water, while the elution buffer was 100% acetonitrile. Lastly, to ensure full saturation of Aurora A by TPX2 and test these proteins were well behaved, a dose-dependence curve of the effect of TPX2 on Aurora A was obtained.
For ATP/NADH-coupled assay-based reaction, the following protocol was used. Phosphorylation of different concentrations of Lats2 peptide was monitored using the ATP/NADH coupled assay in a 96-well plate format. Reactions were carried in the presence of 1 μM dephosphorylated or 0.05 μM phosphorylated Aurora and 5 mM ATP in assay buffer (20 mM TrisHCl, 200 mM NaCl, 20 mM MgCl2, 10% (v/v) glycerol, 1 mM TCEP, pH 7.50) at 25° C.

HEK293 cells = test: HEK293 viability (luminescence) after 7 hours of treatment; assay type: cell-based, human; settings: various monobody concentrations, FIG. 17E
Excerpt: (§2) FIGS. 17A-17F present a set of plots, images and graphs showing data gathered using cultured HEK293 cells. In FIGS. 17A-17F, alternative names of the monobodies described herein are used. […] The error bars represent the standard error for the estimate of Kd and are a measure of the goodness of fit of the data. […] As observed in FIG. 17D, sGFP-Mb60's optimal cell delivery occurs after 7 hrs of exposure. FIG. 17E presents a bar graph of luminescence (mean±SEM, n=4 measurements/dataset) as a measure of HEK293 viability after cells were treated for 7 hours under the conditions indicated below the x-axis. Asterisks indicate significance levels of between-conditions t-test comparisons of the different conditions with liposome-treated control; […]; **=p≤0.01; ***=p≤0.001. […] Cells were quadruple stained to visualize DNA/sGFP(−Mbs)/Aurora A kinase/TPX2. […] In the images, DNA stained blue; GFP stained green; Aurora A kinase stained red; and […].

[3] = test system: Aurora A kinase in HEK293 cells; test: Immunofluorescence co-localization with Aurora A kinase in HEK293 cells; assay type: cell-based, human; settings: 7 hours after delivery, FIG. 17F
Excerpt: as §2

Row | binding affinity of monobody to dephosphorylated Aurora A kinase [1] | Activity of Monobody on Aurora A kinase (Aurora A kinase) | Molecule | effect of monobody on Aurora A kinase activity (Aurora A kinase) | cell death / viability of HEK293 cells (HEK293 cells) | co-localization with Aurora A kinase [3] | also measured
1 | – | – | CO[C@@H](C(=O)N1Cc2[nH]nc(NC(=O)c3ccc(N4CCN(C)CC4)cc3)c2C1)c1ccccc1 [danusertib, reference compound] | – | – | – | weakening of binding affinity of danusertib ([1]; Aurora A pre-saturated with activating monobody Mb54 (aka Mb1), FIG. 10C): 19 fold; tightening of binding affinity of danusertib ([1]; Aurora A pre-saturated with inhibiting monobody Mb60 (aka Mb2), FIG. 10C): 4.7 fold; binding of danusertib to Aurora A tighter in the presence of PS48 ([1]; saturating levels of PS48 vs none): about 2 times; binding of danusertib to Aurora A kinase chimera weaker than binding to Aurora A kinase [2]: about 4 times
2 | low μM levels | inhibitor | Mb44: monobody binding allosteric site of Aurora A kinase, SEQ ID NO: 1; inhibitor (protein, listed as Homo sapiens) GSVSSVPTKLEVVAATPTSLLISWDAPAVTVDFYVITYGETGGYSYPWQEFEVPGSKSTATISGLKPGVDYTITVYADYGQYFYSPISINYRT | strongly inhibit | – | – | –
3 | – | – | sGFP-Mb6: fusion polypeptide of supercharged GFP and activity-neutral monobody Mb6 (protein, left off: large carriers) GSVSSVPTKLEVVAATPTSLLISWDAFGHQYEPVYYYRITYGETGGNSPVQEFTVPGYYSTATISGLKPGVDYTITVYAWYVDGSYSSPISINYRT | – | statistically significant cell death | strong co-localization | –
4 | low nanomolar affinities | inhibitor | Mb56: monobody binding allosteric site of Aurora A kinase, SEQ ID NO: 3; inhibitor (protein, listed as Homo sapiens) GSVSSVPTKLEVVAATPTSLLISWDAMSDWYYWVDYYRITYGETGGNSPVQEFTVPGSYSTATISGLKPGVDYTITVYASDDVWGDYSPISINYRT | strongly inhibit | – | – | –
5 | low nanomolar affinities | activator | Mb54: monobody binding allosteric site (PIF pocket) of Aurora A kinase, SEQ ID NO: 11; activator (protein, listed as Homo sapiens) GSVSSVPTKLEVVAATPTSLLISWDAQTYQMYDYVSYYRITYGETGGNSPVQEFTVPGYYSTATISGLKPGVDYTITVYAEGYYSSYSPISINYRT | strongest activator; also recorded: activate; also recorded: activation | – | – | change of binding affinity of monobody to dephosphorylated Aurora A kinase [1]: weakened
6 | – | – | sGFP-Mb54: fusion polypeptide of supercharged GFP and activating monobody Mb54 (aka Mb1) (protein, left off: large carriers) GSVSSVPTKLEVVAATPTSLLISWDAQTYQMYDYVSYYRITYGETGGNSPVQEFTVPGYYSTATISGLKPGVDYTITVYAEGYYSSYSPISINYRT | – | did not cause cell death | strong co-localization | binding affinity of sGFP-monobody fusion to Aurora A kinase compared with the monobody [1]: closely mimicked the binding
7 | low μM levels | inhibitor | Mb60: monobody binding allosteric site of Aurora A kinase, SEQ ID NO: 4; inhibitor (protein, listed as Homo sapiens) GSVSSVPTKLEVVAATPTSLLISWDAPAVTVVHYVITYGETGGNSPVQEFTVPGSKSTATISGLKPGVDYTITVYAIDFYWGSYSPISINYRT | inhibitor; also recorded: inhibited; also recorded: strong inhibition | – | – | change of binding affinity of monobody to dephosphorylated Aurora A kinase [1]: tightened
8 | – | – | sGFP-Mb60: fusion polypeptide of supercharged GFP and inhibiting monobody Mb60 (aka Mb2) (protein, left off: large carriers) GSVSSVPTKLEVVAATPTSLLISWDAPAVTVVHYVITYGETGGNSPVQEFTVPGSKSTATISGLKPGVDYTITVYAIDFYWGSYSPISINYRT | – | statistically significant cell death | strong co-localization | binding affinity of sGFP-monobody fusion to Aurora A kinase compared with the monobody [1]: comparable; also recorded: closely mimicked the binding; inhibition of Aurora A kinase activity by sGFP fusion compared with the monobody (Aurora A kinase; FIG. 17C): same extent as Mb60
9 | low nanomolar affinities | inhibitor | Mb51: monobody binding allosteric site of Aurora A kinase, SEQ ID NO: 2; inhibitor (protein, listed as Homo sapiens) GSVSSVPTKLEVVAATPTSLLISWDAKPMSYEPVYYYRITYGETGGNSPVQEFTVPGYYSTATISGLKPGVDYTITVYADSMSSYYYSPISINYRT | strongly inhibit | – | – | –

Row | Molecule | binding affinity of monobody to dephosphorylated Aurora A kinase [1] | Activity of Monobody on Aurora A kinase (Aurora A kinase) | effect of monobody on Aurora A kinase activity (Aurora A kinase) | cell death / viability of HEK293 cells (HEK293 cells) | co-localization with Aurora A kinase [3] | also measured
10 | Mb6: monobody binding allosteric site of Aurora A kinase, SEQ ID NO: 10; activity neutral (protein, listed as Homo sapiens) GSVSSVPTKLEVVAATPTSLLISWDAFGHQYEPVYYYRITYGETGGNSPVQEFTVPGYYSTATISGLKPGVDYTITVYAWYVDGSYSSPISINYRT | low nM affinity; also recorded: low nanomolar affinities | neutral | weakest regulator; also recorded: did not significantly modulate; also recorded: neutral activity | – | – | –
